B1: GOT1L1, Q8NHS2 (peptide)
chain: EKKTLIGIKL
B2: ACOT8, O14734 (peptide)
chain: VKPQVSESKL
B3: CAVIN3, Q969G5 (peptide)
chain: EALLQMESVA
B4: PDGFRB, P09619 (peptide)
chain: PRAEAEDSFL

molecular target: ARHGEF12, Q9NZN5-2; assay: holdup assay; set-up: key: below the threshold = too weak to quantify, mostly under pKd 3.1 to 4; conditions: plain residues with an end cap or a label only (N-terminal biotin on a linker: ado-ado)
Sequence (Q9NZN5 other isoform, or with tags, fused parts or gaps): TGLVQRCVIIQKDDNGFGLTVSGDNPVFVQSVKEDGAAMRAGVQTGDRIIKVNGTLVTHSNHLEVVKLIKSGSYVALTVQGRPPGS

| pKd | Binder |
| --- | --- |
| 3.64 | B1 |
| 4.03 | B2 |
| 3.63 | B3 |
| 3.63 | B4 |

molecular target: GORASP1, Q9BQQ3; assay: holdup assay; set-up: key: below the threshold = too weak to quantify, mostly under pKd 3.1 to 4; conditions: plain residues with an end cap or a label only (N-terminal biotin on a linker: ado-ado)
Sequence (Q9BQQ3 1-208): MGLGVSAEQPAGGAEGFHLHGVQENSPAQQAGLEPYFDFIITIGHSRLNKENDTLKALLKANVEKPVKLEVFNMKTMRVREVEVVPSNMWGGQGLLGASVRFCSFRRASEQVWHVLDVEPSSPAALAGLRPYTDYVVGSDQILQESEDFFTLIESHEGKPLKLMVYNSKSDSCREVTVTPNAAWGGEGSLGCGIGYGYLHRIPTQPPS

| pKd | Binder |
| --- | --- |
| below the threshold | B1 |
| below the threshold | B2 |
| below the threshold | B3 |
| 3.57 | B4 |

molecular target: CASK, O14936; assay: holdup assay; set-up: key: below the threshold = too weak to quantify, mostly under pKd 3.1 to 4; conditions: plain residues with an end cap or a label only (N-terminal biotin on a linker: ado-ado)
Sequence (O14936 487-570): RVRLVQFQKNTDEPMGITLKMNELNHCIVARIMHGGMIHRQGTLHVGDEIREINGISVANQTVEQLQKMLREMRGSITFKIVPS

| pKd | Binder |
| --- | --- |
| below the threshold | B1 |
| below the threshold | B2 |
| below the threshold | B3 |
| below the threshold | B4 |

molecular target: T1, SIPA1L2, Q9P2F8; assay: holdup assay; set-up: key: below the threshold = too weak to quantify, mostly under pKd 3.1 to 4; conditions: plain residues with an end cap or a label only (N-terminal biotin on a linker: ado-ado)
T1 sequence (Q9P2F8 945-1036, limits assumed, looked up): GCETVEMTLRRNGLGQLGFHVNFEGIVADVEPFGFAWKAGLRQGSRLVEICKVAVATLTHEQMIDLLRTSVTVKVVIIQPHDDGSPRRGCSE

| pKd | Binder |
| --- | --- |
| below the threshold | B1 |
| below the threshold | B2 |
| below the threshold | B3 |
| below the threshold | B4 |

molecular target: SCRIB_1, Q14160; assay: holdup assay; set-up: key: below the threshold = too weak to quantify, mostly under pKd 3.1 to 4; conditions: plain residues with an end cap or a label only (N-terminal biotin on a linker: ado-ado)
Sequence (Q14160 718-814): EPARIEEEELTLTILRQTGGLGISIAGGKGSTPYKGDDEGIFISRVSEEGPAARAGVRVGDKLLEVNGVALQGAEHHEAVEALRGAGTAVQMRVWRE

| pKd | Binder |
| --- | --- |
| below the threshold | B1 |
| 4.32 | B2 |
| 3.56 | B3 |
| 3.76 | B4 |

molecular target: GRIP2_3, Q9C0E4; assay: holdup assay; set-up: key: below the threshold = too weak to quantify, mostly under pKd 3.1 to 4; conditions: plain residues with an end cap or a label only (N-terminal biotin on a linker: ado-ado)
Sequence (Q9C0E4 238-339): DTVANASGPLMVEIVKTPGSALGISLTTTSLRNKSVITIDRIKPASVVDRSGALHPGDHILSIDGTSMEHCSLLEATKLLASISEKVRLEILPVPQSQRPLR

| pKd | Binder |
| --- | --- |
| below the threshold | B1 |
| below the threshold | B2 |
| below the threshold | B3 |
| below the threshold | B4 |

molecular target: TJP1_2, Q07157; assay: holdup assay; set-up: key: below the threshold = too weak to quantify, mostly under pKd 3.1 to 4; conditions: plain residues with an end cap or a label only (N-terminal biotin on a linker: ado-ado)
Sequence (Q07157 181-274): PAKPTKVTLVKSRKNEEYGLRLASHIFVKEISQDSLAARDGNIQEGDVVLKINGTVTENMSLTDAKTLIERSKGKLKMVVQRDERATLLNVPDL

| pKd | Binder |
| --- | --- |
| below the threshold | B1 |
| below the threshold | B2 |
| below the threshold | B3 |
| 3.58 | B4 |

molecular target: LIMK2, P53671; assay: holdup assay; set-up: key: below the threshold = too weak to quantify, mostly under pKd 3.1 to 4; conditions: plain residues with an end cap or a label only (N-terminal biotin on a linker: ado-ado)
Sequence (P53671 143-248): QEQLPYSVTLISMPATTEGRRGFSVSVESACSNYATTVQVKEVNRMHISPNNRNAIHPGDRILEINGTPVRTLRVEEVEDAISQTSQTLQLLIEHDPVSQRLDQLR

| pKd | Binder |
| --- | --- |
| below the threshold | B1 |
| below the threshold | B2 |
| below the threshold | B3 |
| below the threshold | B4 |

molecular target: T2, SNTA1, Q13424; assay: holdup assay; set-up: key: below the threshold = too weak to quantify, mostly under pKd 3.1 to 4; conditions: plain residues with an end cap or a label only (N-terminal biotin on a linker: ado-ado)
T2 sequence (Q13424 82-180, limits assumed, looked up): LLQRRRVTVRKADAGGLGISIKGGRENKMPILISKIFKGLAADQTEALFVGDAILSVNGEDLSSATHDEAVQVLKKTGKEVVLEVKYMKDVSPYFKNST

| pKd | Binder |
| --- | --- |
| below the threshold | B1 |
| below the threshold | B2 |
| below the threshold | B3 |
| 3.59 | B4 |

molecular target: DLG2_2, Q15700; assay: holdup assay; set-up: key: below the threshold = too weak to quantify, mostly under pKd 3.1 to 4; conditions: plain residues with an end cap or a label only (N-terminal biotin on a linker: ado-ado)
Sequence (Q15700 189-283): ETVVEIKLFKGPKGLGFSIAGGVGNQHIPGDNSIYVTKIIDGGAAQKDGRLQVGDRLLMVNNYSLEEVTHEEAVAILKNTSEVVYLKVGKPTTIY

| pKd | Binder |
| --- | --- |
| below the threshold | B1 |
| below the threshold | B2 |
| below the threshold | B3 |
| below the threshold | B4 |

molecular target: T3, SNTG1, Q9NSN8; assay: holdup assay; set-up: key: below the threshold = too weak to quantify, mostly under pKd 3.1 to 4; conditions: plain residues with an end cap or a label only (N-terminal biotin on a linker: ado-ado)
T3 sequence (Q9NSN8 52-150, limits assumed, looked up): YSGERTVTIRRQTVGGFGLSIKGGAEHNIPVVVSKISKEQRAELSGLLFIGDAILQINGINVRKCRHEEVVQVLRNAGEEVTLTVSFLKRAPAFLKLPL

| pKd | Binder |
| --- | --- |
| below the threshold | B1 |
| below the threshold | B2 |
| below the threshold | B3 |
| below the threshold | B4 |

molecular target: TJP2_1, Q9UDY2; assay: holdup assay; set-up: key: below the threshold = too weak to quantify, mostly under pKd 3.1 to 4; conditions: plain residues with an end cap or a label only (N-terminal biotin on a linker: ado-ado)
Sequence (Q9UDY2 24-128): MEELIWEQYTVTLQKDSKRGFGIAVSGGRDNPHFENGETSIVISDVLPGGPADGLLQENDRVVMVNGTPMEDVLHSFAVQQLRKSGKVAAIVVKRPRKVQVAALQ

| pKd | Binder |
| --- | --- |
| below the threshold | B1 |
| below the threshold | B2 |
| below the threshold | B3 |
| below the threshold | B4 |

molecular target: T4, HTRA3, P83110; assay: holdup assay; set-up: key: below the threshold = too weak to quantify, mostly under pKd 3.1 to 4; conditions: plain residues with an end cap or a label only (N-terminal biotin on a linker: ado-ado)
T4 sequence (P83110 354-453, limits assumed, looked up): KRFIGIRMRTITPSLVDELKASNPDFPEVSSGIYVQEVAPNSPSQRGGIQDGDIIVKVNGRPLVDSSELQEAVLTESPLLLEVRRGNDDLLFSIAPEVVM

| pKd | Binder |
| --- | --- |
| below the threshold | B1 |
| below the threshold | B2 |
| below the threshold | B3 |
| below the threshold | B4 |

molecular target: GRIP2_7, Q9C0E4; assay: holdup assay; set-up: key: below the threshold = too weak to quantify, mostly under pKd 3.1 to 4; conditions: plain residues with an end cap or a label only (N-terminal biotin on a linker: ado-ado)
Sequence (Q9C0E4 934-1023): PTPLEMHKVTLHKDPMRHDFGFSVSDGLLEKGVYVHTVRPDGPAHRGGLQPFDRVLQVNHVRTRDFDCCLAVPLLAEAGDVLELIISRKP

| pKd | Binder |
| --- | --- |
| below the threshold | B1 |
| below the threshold | B2 |
| below the threshold | B3 |
| below the threshold | B4 |

molecular target: MAGI1_2, Q96QZ7; assay: holdup assay; set-up: key: below the threshold = too weak to quantify, mostly under pKd 3.1 to 4; conditions: plain residues with an end cap or a label only (N-terminal biotin on a linker: ado-ado)
Sequence (Q96QZ7 456-580): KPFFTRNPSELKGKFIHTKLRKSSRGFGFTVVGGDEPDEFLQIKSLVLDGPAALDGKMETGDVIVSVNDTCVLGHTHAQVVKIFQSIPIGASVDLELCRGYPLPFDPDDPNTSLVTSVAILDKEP

| pKd | Binder |
| --- | --- |
| below the threshold | B1 |
| below the threshold | B2 |
| below the threshold | B3 |
| below the threshold | B4 |

molecular target: PARD3_3, Q8TEW0; assay: holdup assay; set-up: key: below the threshold = too weak to quantify, mostly under pKd 3.1 to 4; conditions: plain residues with an end cap or a label only (N-terminal biotin on a linker: ado-ado)
Sequence (Q8TEW0 582-685): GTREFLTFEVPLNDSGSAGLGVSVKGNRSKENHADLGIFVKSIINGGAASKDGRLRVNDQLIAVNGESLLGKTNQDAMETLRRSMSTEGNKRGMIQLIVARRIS

| pKd | Binder |
| --- | --- |
| below the threshold | B1 |
| below the threshold | B2 |
| below the threshold | B3 |
| 4.11 | B4 |

molecular target: SCRIB_3, Q14160; assay: holdup assay; set-up: key: below the threshold = too weak to quantify, mostly under pKd 3.1 to 4; conditions: plain residues with an end cap or a label only (N-terminal biotin on a linker: ado-ado)
Sequence (Q14160 999-1103): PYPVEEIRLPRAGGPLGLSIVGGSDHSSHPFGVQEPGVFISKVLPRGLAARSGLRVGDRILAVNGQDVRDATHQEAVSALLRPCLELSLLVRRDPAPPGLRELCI

| pKd | Binder |
| --- | --- |
| below the threshold | B1 |
| 4.24 | B2 |
| below the threshold | B3 |
| 4.06 | B4 |

molecular target: T5, NHERF3_3, Q5T2W1; assay: holdup assay; set-up: key: below the threshold = too weak to quantify, mostly under pKd 3.1 to 4; conditions: plain residues with an end cap or a label only (N-terminal biotin on a linker: ado-ado)
T5 sequence (Q5T2W1 238-333, limits assumed, looked up): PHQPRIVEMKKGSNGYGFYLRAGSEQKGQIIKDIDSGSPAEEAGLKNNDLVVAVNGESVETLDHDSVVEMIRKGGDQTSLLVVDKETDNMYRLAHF

| pKd | Binder |
| --- | --- |
| below the threshold | B1 |
| below the threshold | B2 |
| below the threshold | B3 |
| below the threshold | B4 |

molecular target: T6, APBA3_1, O96018; assay: holdup assay; set-up: key: below the threshold = too weak to quantify, mostly under pKd 3.1 to 4; conditions: plain residues with an end cap or a label only (N-terminal biotin on a linker: ado-ado)
T6 sequence (O96018 389-490, limits assumed, looked up): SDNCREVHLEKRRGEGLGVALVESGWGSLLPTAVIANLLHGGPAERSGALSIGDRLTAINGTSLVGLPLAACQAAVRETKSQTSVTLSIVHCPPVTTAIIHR

| pKd | Binder |
| --- | --- |
| below the threshold | B1 |
| below the threshold | B2 |
| below the threshold | B3 |
| below the threshold | B4 |

molecular target: NHERF4_2, Q86UT5; assay: holdup assay; set-up: key: below the threshold = too weak to quantify, mostly under pKd 3.1 to 4; conditions: plain residues with an end cap or a label only (N-terminal biotin on a linker: ado-ado)
Sequence (Q86UT5 220-308): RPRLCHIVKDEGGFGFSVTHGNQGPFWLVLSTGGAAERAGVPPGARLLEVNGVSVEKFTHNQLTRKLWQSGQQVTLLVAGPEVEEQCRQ

| pKd | Binder |
| --- | --- |
| below the threshold | B1 |
| below the threshold | B2 |
| below the threshold | B3 |
| 3.66 | B4 |

molecular target: T7, APBA2_1, Q99767; assay: holdup assay; set-up: key: below the threshold = too weak to quantify, mostly under pKd 3.1 to 4; conditions: plain residues with an end cap or a label only (N-terminal biotin on a linker: ado-ado)
T7 sequence (Q99767 563-664, limits assumed, looked up): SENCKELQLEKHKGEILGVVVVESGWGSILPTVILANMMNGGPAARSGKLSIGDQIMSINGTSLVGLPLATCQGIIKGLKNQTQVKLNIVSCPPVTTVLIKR

| pKd | Binder |
| --- | --- |
| below the threshold | B1 |
| below the threshold | B2 |
| below the threshold | B3 |
| 3.66 | B4 |

molecular target: T8, TJP3_3, O95049; assay: holdup assay; set-up: key: below the threshold = too weak to quantify, mostly under pKd 3.1 to 4; conditions: plain residues with an end cap or a label only (N-terminal biotin on a linker: ado-ado)
T8 sequence (O95049 375-456, limits assumed, looked up): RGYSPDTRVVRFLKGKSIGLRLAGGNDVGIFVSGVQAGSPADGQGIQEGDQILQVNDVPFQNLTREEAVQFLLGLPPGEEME

| pKd | Binder |
| --- | --- |
| below the threshold | B1 |
| below the threshold | B2 |
| below the threshold | B3 |
| 3.49 | B4 |

molecular target: T9, PDZD7_3, Q9H5P4; assay: holdup assay; set-up: key: below the threshold = too weak to quantify, mostly under pKd 3.1 to 4; conditions: plain residues with an end cap or a label only (N-terminal biotin on a linker: ado-ado)
T9 sequence (Q9H5P4 857-944, limits assumed, looked up): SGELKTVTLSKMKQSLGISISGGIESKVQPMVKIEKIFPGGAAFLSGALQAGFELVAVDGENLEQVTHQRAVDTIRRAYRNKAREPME

| pKd | Binder |
| --- | --- |
| below the threshold | B1 |
| 4.15 | B2 |
| below the threshold | B3 |
| 3.56 | B4 |

molecular target: T10, PARD3B_1, Q8TEW8; assay: holdup assay; set-up: key: below the threshold = too weak to quantify, mostly under pKd 3.1 to 4; conditions: plain residues with an end cap or a label only (N-terminal biotin on a linker: ado-ado)
T10 sequence (Q8TEW8 196-299, limits assumed, looked up): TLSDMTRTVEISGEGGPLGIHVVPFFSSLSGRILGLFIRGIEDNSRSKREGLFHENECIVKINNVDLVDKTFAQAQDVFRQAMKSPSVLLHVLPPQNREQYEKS

| pKd | Binder |
| --- | --- |
| 4.74 | B1 |
| 3.69 | B2 |
| below the threshold | B3 |
| 4.55 | B4 |

molecular target: T11, DVL3, Q92997; assay: holdup assay; set-up: key: below the threshold = too weak to quantify, mostly under pKd 3.1 to 4; conditions: plain residues with an end cap or a label only (N-terminal biotin on a linker: ado-ado)
T11 sequence (Q92997 244-331, limits assumed, looked up): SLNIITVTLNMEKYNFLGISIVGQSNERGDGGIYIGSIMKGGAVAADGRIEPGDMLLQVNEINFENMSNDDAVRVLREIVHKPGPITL

| pKd | Binder |
| --- | --- |
| below the threshold | B1 |
| below the threshold | B2 |
| below the threshold | B3 |
| below the threshold | B4 |

molecular target: T12, DFNB31_2, Q9P202; assay: holdup assay; set-up: key: below the threshold = too weak to quantify, mostly under pKd 3.1 to 4; conditions: plain residues with an end cap or a label only (N-terminal biotin on a linker: ado-ado)
T12 sequence (Q9P202 274-371, limits assumed, looked up): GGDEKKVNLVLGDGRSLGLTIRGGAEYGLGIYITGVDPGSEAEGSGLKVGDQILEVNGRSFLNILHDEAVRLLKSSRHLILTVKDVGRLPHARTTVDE

| pKd | Binder |
| --- | --- |
| below the threshold | B1 |
| 3.62 | B2 |
| below the threshold | B3 |
| below the threshold | B4 |
